According to PMC7467306:

Legend:
[1] = target: human insulin receptor isoform A (human) (UniProt P06213); experiment: radioligand binding; competition with [125I]-monoiodotyrosyl-TyrA14-insulin on intact human IM-9 lymphocytes (human IR-A)
[2] = target: human IGF-1 receptor (human) (UniProt P08069); experiment: radioligand binding; competition with [125I]-monoiodotyrosyl-IGF1 on intact mouse fibroblasts transfected with human IGF-1R and with deleted mouse IGF-1R
[3] = target: His-tagged domain 11 (D11) of human IGF2R (human) (UniProt P11717); experiment: radioligand binding; competition of unlabeled ligand (10^-12-10^-6 M) with [125I]-monoiodotyrosyl-Tyr2-IGF2 (43000 cpm, 0.02 nM) for D11 held in wells on iBodies; 16 h at 5 °C, HEPES binding buffer pH 7.6 with 1 % BSA; one-site fit with ligand depletion, Kd of the tracer set to 2 nM
UniProt P11717, sequence (P11717 1508-1651): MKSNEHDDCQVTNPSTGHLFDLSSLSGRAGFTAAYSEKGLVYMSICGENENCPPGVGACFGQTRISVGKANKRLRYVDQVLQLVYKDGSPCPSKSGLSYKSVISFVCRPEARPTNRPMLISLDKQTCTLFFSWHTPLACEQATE

UniProt P06213, sequence (P06213 other isoform, or with tags, fused parts or gaps): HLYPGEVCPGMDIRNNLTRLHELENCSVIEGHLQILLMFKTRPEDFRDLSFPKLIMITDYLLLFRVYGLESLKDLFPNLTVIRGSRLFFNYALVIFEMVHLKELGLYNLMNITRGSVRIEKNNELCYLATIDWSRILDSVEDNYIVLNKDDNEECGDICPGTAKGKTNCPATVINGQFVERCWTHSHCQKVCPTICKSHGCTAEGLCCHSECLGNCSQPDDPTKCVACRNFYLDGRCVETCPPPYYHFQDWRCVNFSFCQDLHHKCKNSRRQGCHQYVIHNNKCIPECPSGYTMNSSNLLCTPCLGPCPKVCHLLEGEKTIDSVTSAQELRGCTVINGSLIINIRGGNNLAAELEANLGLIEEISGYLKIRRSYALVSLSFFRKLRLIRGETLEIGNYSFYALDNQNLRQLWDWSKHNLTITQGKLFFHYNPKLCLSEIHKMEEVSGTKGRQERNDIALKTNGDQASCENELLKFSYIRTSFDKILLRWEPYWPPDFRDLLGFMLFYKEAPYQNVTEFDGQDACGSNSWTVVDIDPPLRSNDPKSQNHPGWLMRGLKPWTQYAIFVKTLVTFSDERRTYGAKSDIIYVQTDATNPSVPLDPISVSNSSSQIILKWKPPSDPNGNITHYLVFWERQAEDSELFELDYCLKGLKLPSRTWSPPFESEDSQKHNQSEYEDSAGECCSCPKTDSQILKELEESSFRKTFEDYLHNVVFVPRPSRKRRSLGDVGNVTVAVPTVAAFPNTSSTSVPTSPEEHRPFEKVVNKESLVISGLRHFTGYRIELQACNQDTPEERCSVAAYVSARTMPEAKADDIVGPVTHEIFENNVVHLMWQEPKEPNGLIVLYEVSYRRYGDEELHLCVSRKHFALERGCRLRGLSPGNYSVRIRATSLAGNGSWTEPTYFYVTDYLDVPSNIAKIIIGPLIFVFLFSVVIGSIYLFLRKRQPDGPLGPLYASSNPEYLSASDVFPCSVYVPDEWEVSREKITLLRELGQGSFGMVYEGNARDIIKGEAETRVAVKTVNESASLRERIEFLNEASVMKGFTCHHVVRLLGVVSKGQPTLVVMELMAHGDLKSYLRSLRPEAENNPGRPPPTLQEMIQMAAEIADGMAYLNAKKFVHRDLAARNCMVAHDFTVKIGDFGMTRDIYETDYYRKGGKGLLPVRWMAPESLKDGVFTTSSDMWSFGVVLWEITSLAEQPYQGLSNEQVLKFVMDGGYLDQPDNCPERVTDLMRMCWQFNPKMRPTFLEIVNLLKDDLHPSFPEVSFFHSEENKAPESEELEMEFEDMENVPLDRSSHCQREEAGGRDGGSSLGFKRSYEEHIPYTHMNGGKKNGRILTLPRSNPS

## Leu19-IGF2 analog (ligand)
[1]
  Kd: 7.3 nM
[2]
  Kd: 1.1 nM
[3]
  Kd: 0.28 nM
